Literature values in paper PMC7156917.

Assays:
CXCR4 (Homo sapiens) = CXCR4 (Homo sapiens) (UniProt P61073); assay: SPR
CCR5 (Homo sapiens) = CCR5 (Homo sapiens) (UniProt P51681); assay: equilibrium binding assay
UniProt P51681, sequence (P51681 whole entry): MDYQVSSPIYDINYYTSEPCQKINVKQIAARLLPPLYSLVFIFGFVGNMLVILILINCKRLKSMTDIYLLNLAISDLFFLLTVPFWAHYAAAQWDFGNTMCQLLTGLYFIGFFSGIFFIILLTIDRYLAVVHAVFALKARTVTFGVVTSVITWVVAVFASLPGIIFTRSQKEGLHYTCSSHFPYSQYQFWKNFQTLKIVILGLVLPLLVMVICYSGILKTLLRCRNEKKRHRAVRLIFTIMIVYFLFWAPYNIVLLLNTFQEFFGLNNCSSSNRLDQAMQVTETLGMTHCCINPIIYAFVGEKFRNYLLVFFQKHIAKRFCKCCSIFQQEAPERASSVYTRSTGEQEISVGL

UniProt P61073, sequence (P61073 whole entry): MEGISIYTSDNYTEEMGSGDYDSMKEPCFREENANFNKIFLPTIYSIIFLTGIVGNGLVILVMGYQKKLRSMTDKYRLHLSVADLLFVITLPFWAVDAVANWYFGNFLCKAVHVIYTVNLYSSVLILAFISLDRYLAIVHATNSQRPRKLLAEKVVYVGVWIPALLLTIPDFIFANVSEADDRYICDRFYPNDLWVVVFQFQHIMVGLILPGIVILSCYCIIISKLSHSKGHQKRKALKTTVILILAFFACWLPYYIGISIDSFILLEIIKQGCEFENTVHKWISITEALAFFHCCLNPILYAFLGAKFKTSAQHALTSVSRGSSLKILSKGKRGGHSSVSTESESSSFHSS

Substance: HIV Env gp120 gp120 (from UniProt O70902)
- Kd (CXCR4 (Homo sapiens)): 500 nM
- Kd (CCR5 (Homo sapiens)): 5 nM
